± gives the uncertainty stated by the source.
B1: Cytoplasmic polyadenylation element-binding protein 2, residues 513 to 575; numbered along this chain, Q7Z5Q1 (parent)
chain: KRVEVKPYVLDDQMCDECQGARCGGKFAPFFCANVTCLQYYCEFCWANIHSRAGREFHKPLVK

Variants of: B1
Assay: abundance fitness (aPCA) (normalised: wild type 0, dead -1); higher = more abundant; growth selection in yeast, the domain comes from the species named
Conditions: Homo sapiens

Row | Variant | abundance fitness
1 | C42Y | -0.869 ± 0.094
2 | E43A | -0.3 ± 0.067
3 | E43C | -0.25 ± 0.051
4 | E43D | -0.049 ± 0.083
5 | E43F | -0.298 ± 0.052
6 | E43G | -0.179 ± 0.047
7 | E43H | -0.079 ± 0.084
8 | E43I | -0.539 ± 0.087
9 | E43K | -0.161 ± 0.064
10 | E43L | -0.395 ± 0.044
11 | E43M | -0.309 ± 0.05
12 | E43N | -0.05 ± 0.071
13 | E43Q | -0.11 ± 0.057
14 | E43R | -0.107 ± 0.036
15 | E43S | 0.018 ± 0.04
16 | E43T | -0.149 ± 0.06
17 | E43V | -0.235 ± 0.056
18 | E43W | -0.136 ± 0.051
19 | E43Y | -0.146 ± 0.058
20 | F44A | 0.05 ± 0.043
21 | F44C | 0.053 ± 0.063
22 | F44D | -0.109 ± 0.1
23 | F44E | 0.033 ± 0.048
24 | F44G | 0.015 ± 0.039

Row | Variant | abundance fitness
25 | F44K | -0.046 ± 0.058
26 | F44L | 0.007 ± 0.038
27 | F44M | -0.145 ± 0.057
28 | F44N | -0.056 ± 0.055
29 | F44P | 0.082 ± 0.048
30 | F44Q | 0.124 ± 0.061
31 | F44R | -0.038 ± 0.032
32 | F44S | -0.012 ± 0.038
33 | F44T | 0.003 ± 0.048
34 | F44V | 0.044 ± 0.046
35 | F44W | -0.067 ± 0.043
36 | F44Y | 0.059 ± 0.096
37 | C45A | -0.77 ± 0.078
38 | C45E | -1.16 ± 0.14
39 | C45F | -1.2 ± 0.17
40 | C45H | -0.733 ± 0.1
41 | C45I | -1.1 ± 0.25
42 | C45K | -1.11 ± 0.15
43 | C45L | -1.14 ± 0.081
44 | C45M | -1.24 ± 0.14
45 | C45P | -0.932 ± 0.1
46 | C45Q | -0.994 ± 0.14
47 | C45R | -1.05 ± 0.066
48 | C45S | -1.1 ± 0.094

Row | Variant | abundance fitness
49 | C45T | -1.01 ± 0.099
50 | C45V | -1.32 ± 0.1
51 | C45W | -1.04 ± 0.11
52 | C45Y | -0.917 ± 0.085
53 | W46A | -0.503 ± 0.06
54 | W46C | -0.401 ± 0.084
55 | W46D | -0.684 ± 0.091
56 | W46E | -0.658 ± 0.17
57 | W46F | 0.027 ± 0.052
58 | W46G | -0.567 ± 0.082
59 | W46H | -0.328 ± 0.059
60 | W46I | -0.444 ± 0.074
61 | W46K | -0.829 ± 0.1
62 | W46L | -0.335 ± 0.052
63 | W46M | -0.336 ± 0.092
64 | W46N | -0.33 ± 0.04
65 | W46P | -0.624 ± 0.09
66 | W46Q | -0.624 ± 0.14
67 | W46R | -0.571 ± 0.07
68 | W46T | -0.558 ± 0.052
69 | W46V | -0.573 ± 0.062
70 | W46Y | -0.154 ± 0.052
71 | A47C | -0.318 ± 0.062
72 | A47D | 0.102 ± 0.06

Row | Variant | abundance fitness
73 | A47E | -0.001 ± 0.087
74 | A47F | -0.235 ± 0.062
75 | A47H | -0.17 ± 0.061
76 | A47I | -0.073 ± 0.064
77 | A47K | 0.091 ± 0.063
78 | A47L | -0.18 ± 0.047
79 | A47M | 0.019 ± 0.053
80 | A47N | 0.127 ± 0.11
81 | A47P | -0.175 ± 0.039
82 | A47Q | -0.01 ± 0.085
83 | A47R | -0.041 ± 0.042
84 | A47V | -0.192 ± 0.058
85 | A47W | -0.133 ± 0.065
86 | A47Y | -0.114 ± 0.088
87 | N48A | -0.001 ± 0.046
88 | N48C | -0.033 ± 0.083
89 | N48D | 0.007 ± 0.07
90 | N48E | 0.104 ± 0.088
91 | N48F | -0.071 ± 0.047
92 | N48G | 0.074 ± 0.059
93 | N48H | 0.049 ± 0.047
94 | N48I | -0.02 ± 0.047
95 | N48K | 0.164 ± 0.081
96 | N48L | 0.014 ± 0.043

Row | Variant | abundance fitness
97 | N48M | 0.068 ± 0.071
98 | N48P | -0.141 ± 0.054
99 | N48Q | -0.028 ± 0.052
100 | N48R | 0.029 ± 0.045
101 | N48S | 0.032 ± 0.039
102 | N48T | 0.024 ± 0.052
103 | N48V | -0.003 ± 0.061
104 | N48Y | -0.112 ± 0.05
105 | I49A | 0.017 ± 0.066
106 | I49C | -0.443 ± 0.12
107 | I49D | -0.186 ± 0.07
108 | I49E | -0.461 ± 0.23
109 | I49F | -0.044 ± 0.055
110 | I49G | -0.284 ± 0.072
111 | I49K | -0.127 ± 0.07
112 | I49L | -0.033 ± 0.04
113 | I49M | -0.184 ± 0.1
114 | I49N | -0.221 ± 0.058
115 | I49P | -0.43 ± 0.055
116 | I49Q | -0.132 ± 0.067
117 | I49R | -0.006 ± 0.058
118 | I49S | -0.015 ± 0.036
119 | I49T | -0.139 ± 0.047
120 | I49V | -0.01 ± 0.061

Row | Variant | abundance fitness
121 | I49W | -0.268 ± 0.096
122 | I49Y | 0.026 ± 0.051
123 | H50A | -0.674 ± 0.07
124 | H50E | -0.546 ± 0.066
125 | H50F | -0.904 ± 0.11
126 | H50G | -0.637 ± 0.05
127 | H50I | -0.992 ± 0.18
128 | H50K | -0.673 ± 0.082
129 | H50L | -0.965 ± 0.069
130 | H50M | -0.875 ± 0.1
131 | H50N | -0.827 ± 0.18
132 | H50P | -0.81 ± 0.042
133 | H50Q | -0.727 ± 0.094
134 | H50R | -0.775 ± 0.064
135 | H50S | -0.723 ± 0.051
136 | H50T | -0.742 ± 0.093
137 | H50W | -0.784 ± 0.093
138 | H50Y | -0.806 ± 0.13
139 | S51A | 0.045 ± 0.057
140 | S51D | 0.174 ± 0.056
141 | S51F | -0.239 ± 0.065
142 | S51G | 0.051 ± 0.037
143 | S51H | -0.054 ± 0.07
144 | S51K | 0.106 ± 0.066

Row | Variant | abundance fitness
145 | S51L | -0.021 ± 0.041
146 | S51M | 0.029 ± 0.051
147 | S51N | 0.091 ± 0.079
148 | S51P | -0.118 ± 0.053
149 | S51Q | 0.102 ± 0.06
150 | S51R | 0.116 ± 0.035
151 | S51T | 0.006 ± 0.063
152 | S51V | -0.025 ± 0.039
153 | S51W | -0.267 ± 0.054
154 | R52A | 0 ± 0.045
155 | R52C | -0.077 ± 0.14
156 | R52D | 0.156 ± 0.073
157 | R52E | 0.079 ± 0.045
158 | R52F | -0.071 ± 0.084
159 | R52G | 0.02 ± 0.034
160 | R52I | 0.029 ± 0.072
161 | R52K | 0.118 ± 0.068
162 | R52L | -0.017 ± 0.039
163 | R52M | 0.064 ± 0.057
164 | R52N | 0.004 ± 0.08
165 | R52Q | 0.119 ± 0.058
166 | R52S | 0.085 ± 0.05
167 | R52V | 0.102 ± 0.031
